Experimental data taken from patent US7537764.
Like-named read-outs stand apart in the source and are kept apart here.

B1: SC04-374 (scFv)
scFv: QVTLKESGPTLVKPTQTLTLTCTFSGFSLSTSGVGVGWIRQPPGKALEWLAVIYWNDDKLYRPSLKSRLTITKDTSKNQVVLTMTKMDPVDTATYYCAHRHRYYDISGYYRLFSDAFDIWGQGTMVTVSSGTGGSGGTGSGTGGSTQSVVTQPPSVSGAPGQRVTISCTGSSSNIGAGYDVHWYQQLPGTAPKLLIYGNSNRPSGVPDRFSGSKSGTSASLAITGLQAEDEADYYCQSYDSSLSGSVFGGGTKLTVLG
B2: SC04-361 (scFv)
scFv: EVQLVQSGAEVKKPGESLKISCKASGFSFSTYWIGWVRQMPGKGLEWMGIIYPADSDTRYSPSFQGQVTISADKSISTAYLQWSSLKASDTAMYYCARLRGPYYDFWNGYRETHDAFNVWGQGTMVTVSSGTGGSGGTGSGTGGSTDVVMTQSPDSLAVSLGERATINCKSSQNILDNSDNKNFLAWYQQKPGQPPKLLIYWASARESGVPDRFSGSGSGTDFTLTISSLQAEDVALYYCQQYYNTPITFGQGTRLEIKR
B3: CR4289 (antibody, V domains shown)
VH: EVQLVQSGAEVKKPGESLRISCKGSGYSFTSNWITWVRQMPGKGLEWMGRIDPSDSYTNYSPSFQGHVTISADKSISTAYLQWSSLKASDTAMYYCARDVVGVGASDYYYYMDVWGQGTTVTVSS
VL: EIVLTQSPGTLSLSPGETATLSCRTSQSVSSSYLGWYQQKPGQAPRLLIYGASIRATGIPARFSGSGSGTEFTLTIDSLQSEDFAVYYCQQYNNWPPITFGQGTRLEIKR
B4: CR5074 (antibody, V domains shown)
VH: QVTLKESGPTLVKPTQTLTLTCTFSGFSLSTSGVGVGWIRQPPGKALEWLAVIYWNDDKLYRPSLKSRLTITKDTSKNQVVLTMTKMDPVDTATYYCAHRHRYYDISGYYRLFSDAFDIWGQGTMVTVSS
VL: QSVLTQPPSVSGAPGQRVTISCTGSSSNIGTGYDVHWYQQLPGTAPKLLIYADTNRPSGVPDRFSGSKSGTSASLAITGVQAEDEADYYCQSYDTSLTGWVFGGGTKVTVLG
B5: CR5085 (antibody, V domains shown)
VH: QVTLKESGPTLVKPTQTLTLTCTFSGFSLSTSGVGVGWIRQPPGKALEWLAVIYWNDDKLYRPSLKSRLTITKDTSKNQVVLTMTKMDPVDTATYYCAHRHRYYDISGYYRLFSDAFDIWGQGTMVTVSS
VL: QSVVTQPPSVSGAPGQRVTISCTGSSSNIGAGYDVHWYQQLPGTAPKLLIYGNSNRPSGVPDRFSGSKSGTSASLAITGLQAEDETDYYCQSYDSSLNGWVFGGGTKLTVLG
B6: CR5080 (antibody, V domains shown)
VH: QVTLKESGPTLVKPTQTLTLTCTFSGFSLSTSGVGVGWIRQPPGKALEWLAVIYWNDDKLYRPSLKSRLTITKDTSKNQVVLTMTKMDPVDTATYYCAHRHRYYDISGYYRLFSDAFDIWGQGTMVTVSS
VL: QSVLTQPPSVSGAPGQRVTISCTGSSSNIGAGYDVHWYQQLPGTAPKLLIYGNSNRPSGVPDRFSGSKSGTSASLAITGLQAEDEADYYCQSYDSSLSGWAFGGGTKLTVLG
B7: CR5088 (antibody, V domains shown)
VH: QVTLKESGPTLVKPTQTLTLTCTFSGFSLSTSGVGVGWIRQPPGKALEWLAVIYWNDDKLYRPSLKSRLTITKDTSKNQVVLTMTKMDPVDTATYYCAHRHRYYDISGYYRLFSDAFDIWGQGTMVTVSS
VL: QSVVTQPPSVSGAPGQRITISCTGSSSNIGAGYDVHWYQQLPGTAPKFLIYGNSNRPSGVPDRFSGSKSGTSASLAITGLQAEDEADYYCQSYDSSLSGWVFGGGTKLTVLG
B8: CR4353 (antibody, V domains shown)
VH: QVQLVESGGGVVQPGRSLRLSCAASGFTFSNYAMHWVRQAPGKGLEWVAVISYDGGNKYYADSVKGRFTMSRDNSKNTLYLQMNSLRAEDTAVYYCARDFWSGYSMVDSYYYYMDVWGQGTTVTVSS
VL: ETTLTQSPGTLSLSPGERATLSCRASQSVSNTFLAWYQQKPGQAPRLLIYGASSRATGIPDRFSGSGSGTDFTLTISRLEPEDFAAYYCQQYGSSLTFGPGTKVDIKR
B9: CR4299 (antibody, V domains shown)
VH: QVQLVESGGGVVQPGRSLRLSCAASGFTFSGYAMHWVRQAPGKGLDWVAVISYDGSEKYSADSVKGRFTISRDNSKNTLYLQMNSLRAEDTAVYYCAKESGGPIWYKYYGVDVWGQGTTVTVSS
VL: SYVLTQPPSLSAAPRQRVTISCSGSSSNIGNYGVNWYQQLPGKAPKLLIYYDDLLPSGVSDRFSGSKSGTSASLAISGLQSEDEGDYYCAAWDDTLSAWVFGGGTKLTVLG
B10: SC04-353 (scFv)
scFv: EVQLVQSGGGVVQPGRSLRLSCAASGFTFSNYAMHWVRQAPGKGLEWVAVISYDGGNKYYADSVKGRFTMSRDNSKNTLYLQMNSLRAEDTAVYYCARDFWSGYSMVDSYYYYMDVWGKGTTVTVSSGTGGSGGTGSGTGGSTETTLTQSPGTLSLSPGERATLSCRASQSVSNTFLAWYQQKPGQAPRLLIYGASSRATGIPDRFSGSGSGTDFTLTISRLEPEDFAAYYCQQYGSSLTFGPGTKVDIKR

Experiments:
[1] = target: West Nile virus strain USA99b (strain 385-99), whole virus (West Nile virus strain 385-99 (USA99b)); experiment: phage ELISA on coated whole inactivated WNV
[2] = target: West Nile virus strain USA99b (strain 385-99), whole virus (West Nile virus strain 385-99 (USA99b)); experiment: ELISA on irradiated WNV; IgG1 at 2.500 µg/ml
[3] = target: West Nile virus strain USA99b (strain 385-99), whole virus (West Nile virus strain 385-99 (USA99b)); experiment: cell-based or functional assay
[4] = target: West Nile virus strain USA99b (strain 385-99), whole virus (West Nile virus strain 385-99 (USA99b)); experiment: ELISA on irradiated WNV; IgG1 at 0.310 µg/ml
[5] = target: West Nile virus strain USA99b (strain 385-99), whole virus (West Nile virus strain 385-99 (USA99b)); experiment: ELISA on irradiated WNV; IgG1 at 5.000 µg/ml
[6] = target: West Nile virus strain USA99b (strain 385-99), whole virus (West Nile virus strain 385-99 (USA99b)); experiment: ELISA on irradiated WNV; IgG1 at 10.000 µg/ml
[7] = target: West Nile virus strain USA99b (strain 385-99), whole virus (West Nile virus strain 385-99 (USA99b)); experiment: ELISA on irradiated WNV; IgG1 at 0.000 µg/ml (no antibody)
[8] = target: West Nile virus strain USA99b (strain 385-99), whole virus (West Nile virus strain 385-99 (USA99b)); experiment: ELISA on irradiated WNV; IgG1 at 1.250 µg/ml
[9] = target: West Nile virus strain USA99b (strain 385-99), whole virus (West Nile virus strain 385-99 (USA99b)); experiment: ELISA on irradiated WNV; IgG1 at 0.078 µg/ml
[10] = target: West Nile virus strain USA99b (strain 385-99), whole virus (West Nile virus strain 385-99 (USA99b)); experiment: ELISA on irradiated WNV; IgG1 at 0.630 µg/ml
[11] = target: West Nile virus strain USA99b (strain 385-99), whole virus (West Nile virus strain 385-99 (USA99b)); experiment: ELISA on irradiated WNV; IgG1 at 0.039 µg/ml
[12] = target: West Nile virus strain USA99b (strain 385-99), whole virus (West Nile virus strain 385-99 (USA99b)); experiment: ELISA on irradiated WNV; IgG1 at 0.160 µg/ml
[13] = target: West Nile virus strain USA99b (strain 385-99), whole virus (West Nile virus strain 385-99 (USA99b)); experiment: SPR as in Example 9, WNV captured via immobilized CR4283, average of duplicates
[14] = target: West Nile virus strain USA99b (strain 385-99), whole virus (West Nile virus strain 385-99 (USA99b))
[15] = target: West Nile virus strain USA99b (strain 385-99), whole virus (West Nile virus strain 385-99 (USA99b)); experiment: ELISA on irradiated WNV; IgG1 supernatant diluted 1:25
[16] = target: West Nile virus strain USA99b (strain 385-99), whole virus (West Nile virus strain 385-99 (USA99b)); experiment: ELISA on irradiated WNV; IgG1 at 20.000 µg/ml
[17] = target: West Nile virus strain USA99b (strain 385-99), whole virus (West Nile virus strain 385-99 (USA99b)); experiment: ELISA on irradiated WNV; IgG1 supernatant diluted 1:5
[18] = target: West Nile virus strain USA99b (strain 385-99), whole virus (West Nile virus strain 385-99 (USA99b)); experiment: ELISA on irradiated WNV; IgG1 supernatant diluted 1:125

| Binder | OD 492 nm [1] [OD] | OD 492 nm [2] [OD] | OD 492 nm [4] [OD] | OD 492 nm [5] [OD] | OD 492 nm [6] [OD] | OD 492 nm [7] [OD] | OD 492 nm [8] [OD] | OD 492 nm [9] [OD] | OD 492 nm [10] [OD] | OD 492 nm [11] [OD] | OD 492 nm [12] [OD] | Kd [13] [nM] | other results |
| --- | --- | --- | --- | --- | --- | --- | --- | --- | --- | --- | --- | --- | --- |
| B1 | 0.975 | – | – | – | – | – | – | – | – | – | – | – | – |
| B2 | 0.66 | – | – | – | – | – | – | – | – | – | – | – | – |
| B3 | – | 0.492 | 0.313 | 0.586 | 0.752 | 0.003 | 0.415 | 0.209 | 0.351 | 0.147 | 0.25 | – | potency in the 66% neutralizing antibody titer assay [3]: 10.1 µg/mL |
| B4 | – | – | – | – | – | – | – | – | – | – | – | 3.9 | – |
| B5 | – | – | – | – | – | – | – | – | – | – | – | 3.7 | – |
| B6 | – | – | – | – | – | – | – | – | – | – | – | 2.7 | – |
| B7 | – | – | – | – | – | – | – | – | – | – | – | 1.7 | – |
| B8 | – | 1.43 | 1.17 | 1.55 | 1.57 | 0.003 | 1.42 | 0.734 | 1.33 | 0.595 | 1.07 | – | Kd [14]: 6.5 nM |
| B9 | – | 1.03 | 0.756 | 1.07 | 1.12 | 0.003 | 0.977 | 0.446 | 0.891 | 0.227 | 0.61 | – | potency in the 66% neutralizing antibody titer assay [3]: 3 µg/mL; OD 492 nm [15]: 1.34 OD; OD 492 nm [16]: 1.19 OD; OD 492 nm [17]: 1.48 OD; OD 492 nm [18]: 0.929 OD |
| B10 | 1 | – | – | – | – | – | – | – | – | – | – | – | – |
